Legend:
PPARg:RXRa = PPARg:RXRa (Homo sapiens, UniProt P37231;P19793 full;full); test: no ligand; PBM; 180 nM : 90 nM RXRa; PBS pH 7.4, 2% milk, 0.02% Triton X-100, 1 mM DTT, BSA, 0.4 mg/ml salmon testes DNA; conditions: tags: His kept;His cleaved; copies: 1;1; label: surface-attached array probe
RARa:RXRa = RARa:RXRa (Homo sapiens, UniProt P10276;P19793 full;full); test: no ligand; PBM; 270 nM : 90 nM RXRa; PBS pH 7.4, 2% milk, 0.02% Triton X-100, 1 mM DTT, BSA, 0.4 mg/ml salmon testes DNA; conditions: tags: His kept;His cleaved; copies: 1;1; label: surface-attached array probe
In short: (§1)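 The probes on custom Agilent 4×180K protein-binding microarrays were double-stranded, with 34-nt variable regions bearing direct-repeat seeds, single-nucleotide variants, half-site ablations and random human genomic background sequences. Incubation lasted 1 h with ligand-free nuclear receptor dimers in PBS pH 7.4, 2% milk, 0.02% Triton X-100, 1 mM DTT, 0.2 mg/mL BSA and 0.4 mg/ml salmon testes DNA. Antibodies against each partner (one per run) detected bound dimers, and fluorescence scans were regression-normalized. Binding z-scores take the random background probes as reference.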

RXRa = RXRa (Homo sapiens, UniProt P19793); test: no ligand; PBM; 180 nM; PBS pH 7.4, 2% milk, 0.02% Triton X-100, 1 mM DTT, BSA, 0.4 mg/ml salmon testes DNA; conditions: tags: His cleaved; chain copies: 2; label: surface-attached array probe
FXR:RXRa = FXR:RXRa (Homo sapiens, UniProt Q96RI1;P19793 full;full); test: no ligand; PBM; 270 nM : 90 nM RXRa; PBS pH 7.4, 2% milk, 0.02% Triton X-100, 1 mM DTT, BSA, 0.4 mg/ml salmon testes DNA; conditions: tags: His kept;His cleaved; copies: 1;1; label: surface-attached array probe
In short: as §1

RARb:RXRa = RARb:RXRa (Homo sapiens, UniProt P10826;P19793 full;full); test: as above; conditions: tags: His kept;His cleaved; copies: 1;1; label: surface-attached array probe
In short: as §1

PPARa:RXRa = PPARa:RXRa (Homo sapiens, UniProt Q07869;P19793 full;full); test: as above; conditions: tags: GST kept;His cleaved; copies: 1;1; label: surface-attached array probe
In short: as §1

LXRa:RXRa = LXRa:RXRa (Homo sapiens, UniProt Q13133;P19793 full;full); test: as above; conditions: tags: His kept;His cleaved; copies: 1;1; label: surface-attached array probe
In short: as §1

LXRb:RXRa = LXRb:RXRa (Homo sapiens, UniProt P55055;P19793 full;full); test: as above; conditions: tags: His kept;His cleaved; copies: 1;1; label: surface-attached array probe
In short: as §1

RARg:RXRa = RARg:RXRa (Homo sapiens, UniProt P13631;P19793 full;full); test: as above; conditions: tags: His kept;His cleaved; copies: 1;1; label: surface-attached array probe
In short: as §1

VDR:RXRa = VDR:RXRa (Homo sapiens, UniProt P11473;P19793 full;full); test: as above; conditions: tags: His kept;His cleaved; copies: 1;1; label: surface-attached array probe
In short: as §1

PXR:RXRa = PXR:RXRa (Homo sapiens, UniProt O75469;P19793 full;full); test: as above; conditions: tags: His kept;His cleaved; copies: 1;1; label: surface-attached array probe
In short: as §1

Sequence of PPARg:RXRa (P37231 29-505, chain 1 of 2): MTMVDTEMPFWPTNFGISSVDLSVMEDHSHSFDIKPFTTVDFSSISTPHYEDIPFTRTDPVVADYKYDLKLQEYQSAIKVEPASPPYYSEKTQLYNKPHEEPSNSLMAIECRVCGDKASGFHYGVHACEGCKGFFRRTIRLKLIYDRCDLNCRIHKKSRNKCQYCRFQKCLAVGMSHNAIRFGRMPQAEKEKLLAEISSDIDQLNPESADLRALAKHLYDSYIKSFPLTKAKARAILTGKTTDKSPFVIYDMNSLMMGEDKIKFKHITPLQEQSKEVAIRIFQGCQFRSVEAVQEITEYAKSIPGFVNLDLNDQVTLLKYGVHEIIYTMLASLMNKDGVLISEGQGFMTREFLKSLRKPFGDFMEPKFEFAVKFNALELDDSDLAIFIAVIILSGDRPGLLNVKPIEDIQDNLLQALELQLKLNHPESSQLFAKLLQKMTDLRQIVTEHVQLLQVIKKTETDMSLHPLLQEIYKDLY
Sequence of PPARg:RXRa (P19793 whole entry, chain 2 of 2): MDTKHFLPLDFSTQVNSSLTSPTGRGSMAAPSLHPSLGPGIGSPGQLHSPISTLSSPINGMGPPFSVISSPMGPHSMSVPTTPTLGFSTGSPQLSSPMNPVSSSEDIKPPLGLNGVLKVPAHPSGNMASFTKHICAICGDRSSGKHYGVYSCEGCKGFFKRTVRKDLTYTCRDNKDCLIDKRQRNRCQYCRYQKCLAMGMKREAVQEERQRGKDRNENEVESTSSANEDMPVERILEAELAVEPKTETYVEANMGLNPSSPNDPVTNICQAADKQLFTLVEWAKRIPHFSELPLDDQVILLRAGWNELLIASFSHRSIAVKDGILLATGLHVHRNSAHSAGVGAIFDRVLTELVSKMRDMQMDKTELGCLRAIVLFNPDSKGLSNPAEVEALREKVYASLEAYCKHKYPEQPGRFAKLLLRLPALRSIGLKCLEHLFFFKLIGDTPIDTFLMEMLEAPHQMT
Sequence of PPARa:RXRa (Q07869 whole entry, chain 1 of 2): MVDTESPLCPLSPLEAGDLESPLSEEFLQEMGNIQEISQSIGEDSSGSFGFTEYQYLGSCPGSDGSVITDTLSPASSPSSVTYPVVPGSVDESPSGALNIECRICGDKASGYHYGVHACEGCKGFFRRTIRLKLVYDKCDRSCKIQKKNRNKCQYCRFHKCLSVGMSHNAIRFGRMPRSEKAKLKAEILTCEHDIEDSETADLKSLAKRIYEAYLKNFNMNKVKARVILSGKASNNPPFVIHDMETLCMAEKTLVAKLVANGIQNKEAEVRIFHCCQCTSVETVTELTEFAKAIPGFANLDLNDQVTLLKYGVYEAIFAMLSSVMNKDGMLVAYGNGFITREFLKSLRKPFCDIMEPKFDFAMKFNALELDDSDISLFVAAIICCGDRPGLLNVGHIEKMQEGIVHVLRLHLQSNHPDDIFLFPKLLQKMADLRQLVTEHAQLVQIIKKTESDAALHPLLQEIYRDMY
Sequence of PPARa:RXRa (P19793 whole entry, chain 2 of 2): as the sequence (P19793 whole entry, chain 2 of 2) above
Sequence of RXRa (P19793 whole entry): as the sequence (P19793 whole entry, chain 2 of 2) above
Sequence of RARa:RXRa (P10276 whole entry, chain 1 of 2): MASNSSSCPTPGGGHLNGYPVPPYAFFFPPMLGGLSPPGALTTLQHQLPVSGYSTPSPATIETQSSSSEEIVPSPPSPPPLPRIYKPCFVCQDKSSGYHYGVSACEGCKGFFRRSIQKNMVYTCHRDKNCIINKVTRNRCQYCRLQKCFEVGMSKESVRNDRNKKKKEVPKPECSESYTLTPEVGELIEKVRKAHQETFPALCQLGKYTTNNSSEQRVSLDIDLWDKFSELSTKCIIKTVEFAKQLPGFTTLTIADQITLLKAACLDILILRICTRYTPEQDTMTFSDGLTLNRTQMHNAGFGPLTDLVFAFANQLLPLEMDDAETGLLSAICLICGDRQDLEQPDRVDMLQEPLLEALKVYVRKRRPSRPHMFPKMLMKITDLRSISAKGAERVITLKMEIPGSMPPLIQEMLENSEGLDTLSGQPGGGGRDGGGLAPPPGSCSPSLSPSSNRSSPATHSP
Sequence of RARa:RXRa (P19793 whole entry, chain 2 of 2): as the sequence (P19793 whole entry, chain 2 of 2) above
Sequence of RARg:RXRa (P13631 whole entry, chain 1 of 2): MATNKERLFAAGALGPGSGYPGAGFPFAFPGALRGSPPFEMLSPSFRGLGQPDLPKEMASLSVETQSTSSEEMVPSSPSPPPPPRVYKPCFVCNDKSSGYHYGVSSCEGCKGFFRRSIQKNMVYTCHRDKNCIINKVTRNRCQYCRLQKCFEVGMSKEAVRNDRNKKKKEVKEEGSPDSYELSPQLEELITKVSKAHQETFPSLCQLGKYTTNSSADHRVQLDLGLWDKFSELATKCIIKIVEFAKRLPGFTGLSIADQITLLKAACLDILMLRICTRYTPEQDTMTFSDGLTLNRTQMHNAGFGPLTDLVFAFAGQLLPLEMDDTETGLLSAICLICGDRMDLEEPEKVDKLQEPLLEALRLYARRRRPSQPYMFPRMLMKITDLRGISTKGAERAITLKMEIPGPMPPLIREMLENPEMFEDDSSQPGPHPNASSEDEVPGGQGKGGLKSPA
Sequence of RARg:RXRa (P19793 whole entry, chain 2 of 2): as the sequence (P19793 whole entry, chain 2 of 2) above
Sequence of LXRb:RXRa (P55055 whole entry, chain 1 of 2): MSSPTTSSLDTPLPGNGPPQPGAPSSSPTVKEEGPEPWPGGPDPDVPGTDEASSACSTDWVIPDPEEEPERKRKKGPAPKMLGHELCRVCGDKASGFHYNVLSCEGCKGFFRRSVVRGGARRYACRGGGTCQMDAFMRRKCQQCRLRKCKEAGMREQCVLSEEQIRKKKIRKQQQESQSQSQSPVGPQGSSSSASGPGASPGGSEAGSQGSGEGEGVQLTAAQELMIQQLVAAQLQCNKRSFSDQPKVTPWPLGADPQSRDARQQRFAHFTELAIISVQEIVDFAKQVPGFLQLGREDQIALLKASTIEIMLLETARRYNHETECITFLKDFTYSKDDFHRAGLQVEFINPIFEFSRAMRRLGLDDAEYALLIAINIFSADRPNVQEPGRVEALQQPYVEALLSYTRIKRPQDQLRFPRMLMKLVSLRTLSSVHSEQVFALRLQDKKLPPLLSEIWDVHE
Sequence of LXRb:RXRa (P19793 whole entry, chain 2 of 2): as the sequence (P19793 whole entry, chain 2 of 2) above
Sequence of FXR:RXRa (Q96RI1 whole entry, chain 1 of 2): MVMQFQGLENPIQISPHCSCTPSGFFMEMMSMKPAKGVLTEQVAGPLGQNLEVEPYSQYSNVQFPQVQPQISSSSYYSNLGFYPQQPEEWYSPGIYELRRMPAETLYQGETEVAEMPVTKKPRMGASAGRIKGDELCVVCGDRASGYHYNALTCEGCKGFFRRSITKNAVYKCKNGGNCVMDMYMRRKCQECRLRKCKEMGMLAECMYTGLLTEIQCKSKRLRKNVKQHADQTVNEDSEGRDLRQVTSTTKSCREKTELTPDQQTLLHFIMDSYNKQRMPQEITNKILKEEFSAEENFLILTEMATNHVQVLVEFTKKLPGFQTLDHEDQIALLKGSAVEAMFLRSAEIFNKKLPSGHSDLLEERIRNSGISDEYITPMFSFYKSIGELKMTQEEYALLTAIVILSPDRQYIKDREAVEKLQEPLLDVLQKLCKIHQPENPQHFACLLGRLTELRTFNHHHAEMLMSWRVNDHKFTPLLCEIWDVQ
Sequence of FXR:RXRa (P19793 whole entry, chain 2 of 2): as the sequence (P19793 whole entry, chain 2 of 2) above
Sequence of RARb:RXRa (P10826 whole entry, chain 1 of 2): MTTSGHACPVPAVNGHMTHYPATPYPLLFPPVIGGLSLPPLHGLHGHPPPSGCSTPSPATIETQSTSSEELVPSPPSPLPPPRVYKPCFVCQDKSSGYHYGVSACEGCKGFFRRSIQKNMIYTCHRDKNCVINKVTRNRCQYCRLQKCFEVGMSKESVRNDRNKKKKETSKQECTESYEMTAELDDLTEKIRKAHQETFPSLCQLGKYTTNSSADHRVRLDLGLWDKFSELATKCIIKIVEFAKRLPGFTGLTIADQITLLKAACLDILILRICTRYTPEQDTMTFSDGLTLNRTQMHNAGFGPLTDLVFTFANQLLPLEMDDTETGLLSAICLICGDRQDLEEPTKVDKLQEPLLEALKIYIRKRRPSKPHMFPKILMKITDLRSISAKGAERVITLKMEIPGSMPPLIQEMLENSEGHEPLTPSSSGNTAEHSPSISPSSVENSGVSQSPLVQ
Sequence of RARb:RXRa (P19793 whole entry, chain 2 of 2): as the sequence (P19793 whole entry, chain 2 of 2) above
Sequence of VDR:RXRa (P11473 whole entry, chain 1 of 2): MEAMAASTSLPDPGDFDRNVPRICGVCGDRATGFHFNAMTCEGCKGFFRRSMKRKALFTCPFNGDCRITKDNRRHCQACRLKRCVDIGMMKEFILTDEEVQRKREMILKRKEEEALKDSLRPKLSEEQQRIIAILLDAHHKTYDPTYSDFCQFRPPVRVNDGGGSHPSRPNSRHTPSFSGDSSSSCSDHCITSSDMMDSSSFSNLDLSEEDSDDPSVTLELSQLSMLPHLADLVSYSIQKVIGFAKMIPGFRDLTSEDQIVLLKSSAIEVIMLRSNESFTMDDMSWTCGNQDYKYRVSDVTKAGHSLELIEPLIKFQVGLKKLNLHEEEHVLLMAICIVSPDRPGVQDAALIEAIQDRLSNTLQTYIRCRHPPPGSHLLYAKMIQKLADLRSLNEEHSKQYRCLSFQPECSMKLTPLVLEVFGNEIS
Sequence of VDR:RXRa (P19793 whole entry, chain 2 of 2): as the sequence (P19793 whole entry, chain 2 of 2) above

B1: NRC3_random_hg19_13_o1 (dsDNA)
DNA 1: GCCACATCTGTAATCCCAGCACTTTGGGAGGCCAAGGCGATTGACAGCGTAGAATGAAGG
DNA 2: CCTTCATTCTACGCTGTCAATCGCCTTGGCCTCCCAAAGTGCTGGGATTACAGATGTGGC
- binding signal (PPARg:RXRa): 0.3 PBM z-score against 500 random probes
- binding signal (RARa:RXRa): 0.01 PBM z-score against 500 random probes
- binding signal (RXRa): 0.22 PBM z-score against 500 random probes

B2: NRC3_wobSeed29_DR1_C8G_o1 (dsDNA)
DNA 1: GCGCTTAGGGGTCAAAGGTTATAGCATGAATAGAATGCGATTGACAGCGTAGAATGAAGG
DNA 2: CCTTCATTCTACGCTGTCAATCGCATTCTATTCATGCTATAACCTTTGACCCCTAAGCGC
- binding signal (FXR:RXRa): 9.03 PBM z-score against 500 random probes
- binding signal (RARa:RXRa): 9.11 PBM z-score against 500 random probes
- binding signal (RARb:RXRa): 5.84 PBM z-score against 500 random probes
- binding signal (PPARa:RXRa): 7.64 PBM z-score against 500 random probes
- binding signal (LXRa:RXRa): 7.36 PBM z-score against 500 random probes
- binding signal (LXRb:RXRa): 7.75 PBM z-score against 500 random probes
- binding signal (RARg:RXRa): 8.66 PBM z-score against 500 random probes
- binding signal (VDR:RXRa): 7.19 PBM z-score against 500 random probes
- binding signal (PXR:RXRa): 7.35 PBM z-score against 500 random probes
- binding signal (RXRa): 10.6 PBM z-score against 500 random probes

B3: NRC3_wobSeed46_DR1_G21A_o1 (dsDNA)
DNA 1: GCTTACCAAGGTGAAAGGTCATTGATGCACGCCTTGGCGATTGACAGCGTAGAATGAAGG
DNA 2: CCTTCATTCTACGCTGTCAATCGCCAAGGCGTGCATCAATGACCTTTCACCTTGGTAAGC
- binding signal (PPARg:RXRa): 10.9 PBM z-score against 500 random probes
- binding signal (RARa:RXRa): 8.37 PBM z-score against 500 random probes
- binding signal (PPARa:RXRa): 6.54 PBM z-score against 500 random probes
- binding signal (RXRa): 8.42 PBM z-score against 500 random probes

B4: NRC3_wobSeed42_DR1_C19G_o1 (dsDNA)
DNA 1: GCTATACAGGGTCAAAGGGCAGAGTACGAATGTCGAGCGATTGACAGCGTAGAATGAAGG
DNA 2: CCTTCATTCTACGCTGTCAATCGCTCGACATTCGTACTCTGCCCTTTGACCCTGTATAGC
- binding signal (PPARg:RXRa): 9.96 PBM z-score against 500 random probes
- binding signal (RARa:RXRa): 7.26 PBM z-score against 500 random probes
- binding signal (RXRa): 8.22 PBM z-score against 500 random probes

B5: NRC3_wobSeed43_DR1_A20C_o1 (dsDNA)
DNA 1: GCCCAGACAGGTGAAAGGTCACTCAGTCTGGTACGCGCGATTGACAGCGTAGAATGAAGG
DNA 2: CCTTCATTCTACGCTGTCAATCGCGCGTACCAGACTGAGTGACCTTTCACCTGTCTGGGC
- binding signal (PPARg:RXRa): 10.4 PBM z-score against 500 random probes
- binding signal (RARa:RXRa): 7.65 PBM z-score against 500 random probes
- binding signal (RXRa): 8.23 PBM z-score against 500 random probes

B6: NRC3_wobSeed28_DR1_C7G_o1 (dsDNA)
DNA 1: GCCCTAGTGGGCCAAAGGTCATTGATTCCAATGCTCGCGATTGACAGCGTAGAATGAAGG
DNA 2: CCTTCATTCTACGCTGTCAATCGCGAGCATTGGAATCAATGACCTTTGGCCCACTAGGGC
- binding signal (PPARg:RXRa): 13.1 PBM z-score against 500 random probes
- binding signal (RARa:RXRa): 7.08 PBM z-score against 500 random probes

B7: NRC3_wobSeed138_DR5_C23T_o1 (dsDNA)
DNA 1: GCGATACAGGGTCAGCTAGAGGTCAGAGTATGGAAAGCGATTGACAGCGTAGAATGAAGG
DNA 2: CCTTCATTCTACGCTGTCAATCGCTTTCCATACTCTGACCTCTAGCTGACCCTGTATCGC
- binding signal (PPARg:RXRa): 5.41 PBM z-score against 500 random probes
- binding signal (RARa:RXRa): 7.75 PBM z-score against 500 random probes
- binding signal (RARg:RXRa): 9.04 PBM z-score against 500 random probes

B8: NRC3_wobSeed32_DR1_A11G_o1 (dsDNA)
DNA 1: GCTCTTGTAGGTCAAAGGTTAAGAAAGCCGAAGCCTGCGATTGACAGCGTAGAATGAAGG
DNA 2: CCTTCATTCTACGCTGTCAATCGCAGGCTTCGGCTTTCTTAACCTTTGACCTACAAGAGC
- binding signal (PPARg:RXRa): 12.7 PBM z-score against 500 random probes
- binding signal (RARa:RXRa): 8.25 PBM z-score against 500 random probes
- binding signal (PPARa:RXRa): 7.1 PBM z-score against 500 random probes
- binding signal (RXRa): 9.29 PBM z-score against 500 random probes

B9: NRC3_wobSeed30_DR1_C12T_o1 (dsDNA)
DNA 1: GCACTAGCAGGTCAAGGGTCACTCAAGATTAGTCCGGCGATTGACAGCGTAGAATGAAGG
DNA 2: CCTTCATTCTACGCTGTCAATCGCCGGACTAATCTTGAGTGACCCTTGACCTGCTAGTGC
- binding signal (PPARg:RXRa): 11.2 PBM z-score against 500 random probes
- binding signal (RARa:RXRa): 8.23 PBM z-score against 500 random probes
- binding signal (RXRa): 8.53 PBM z-score against 500 random probes
